The nature of data set [1]: in vitro vesicle formation assay, immunoblot. The note with it: glycan lost; control: Fzd6WT.
A short description of data set [2]: immunofluorescence, surface localisation in COS7 cells. The following applies: glycan lost; control: HA-Fzd6wt.

B1: Frizzled-6 (Fzd6): N38A, N352A (protein)
parent chain: MERSPFLLACILLPLVRGHSLFTCEPITVPRCMKMTYNMTFFPNLMGHYDQGIAAVEMGHFLHLANLECSPNIEMFLCQAFIPTCTEQIHVVLPCRKLCEKIVSDCKKLMDTFGIRWPEELECNRLPHCDDTVPVTSHPHTELSGPQKKSDQVPRDIGFWCPKHLRTSGDQGYRFLGIEQCAPPCPNMYFKSDELDFAKSFIGIVSIFCLCATLFTFLTFLIDVRRFRYPERPIIYYSVCYSIVSLMYFVGFLLGNSTACNKADEKLELGDTVVLGSKNKACSVVFMFLYFFTMAGTVWWVILTITWFLAAGRKWSCEAIEQKAVWFHAVAWGAPGFLTVMLLAMNKVEGDNISGVCFVGLYDLDASRYFVLLPLCLCVFVGLSLLLAGIISLNHVRQVIQHDGRNQEKLKKFMIRIGVFSGLYLVPLVTLLGCYVYELVNRITWEMTWFSDHCHQYRIPCPYQANPKARPELALFMIKYLMTLIVGISAVFWVGSKKTCTEWAGFFKRNRKRDPISESRRVLQESCEFFLKHNSKVKHKKKHGAPGPHRLKVISKSMGTSTGATTNHGTSAMAIADHDYLGQETSTEVHTSPEASVKEGRADRANTPSAKDRDCGESAGPSSKLSGNRNGRESRAGGLKERSNGSEGAPSEGRVSPKSSVPETGLIDCSTSQAASSPEPTSLKGSTSLPVHSASRARKEQGAGSHSDA
In the case of B1, the localisation_or_trafficking result in data set [1] and in data set [2] was “decreases” each time.

The values above are taken from article PMC7335806.
